The supplement of paper PMC9112550, “Optimization of the antimicrobial peptide Bac7 by deep mutational scanning” (BMC Biology, 2022)

System: Escherichia coli TOP10
Test: shrunken log2 fold change of peptide-encoding DNA abundance (4.5 h post-induction vs induction); higher = less antimicrobial activity (less host growth inhibition)
Conditions: time post-induction: 4.5 h; library: site-saturation at positions 5, 18, 19, 20
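Further: peptides expressed intracellularly from a pBAD plasmid library in pooled LB shake-flask culture, induced with 0.3% L-arabinose, DNA abundance read by NGS, three biological replicates, DESeq2 with apeglm shrinkage.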

| Sequence | shrunken log2 fold change |
| --- | --- |
| RRIRRRPPRLPRPRPRPELAPRP | 0.927 |
| RRIRARPPRLPRPRPRPVICPRP | 0.408 |
| RRIRYRPPRLPRPRPRPSTAPRP | -0.0926 |
| RRIRFRPPRLPRPRPRPNSTPRP | -0.671 |
| RRIRHRPPRLPRPRPRPQRTPRP | -0.145 |
| RRIRARPPRLPRPRPRPCFWPRP | 0.364 |
| RRIRSRPPRLPRPRPRPCMQPRP | -0.31 |
| RRIRFRPPRLPRPRPRPDIVPRP | -0.0567 |
| RRIRERPPRLPRPRPRPMQWPRP | 0.00938 |
| RRIRARPPRLPRPRPRPEKWPRP | 0.244 |
| RRIRGRPPRLPRPRPRPHDWPRP | 0.46 |
| RRIRVRPPRLPRPRPRPMWIPRP | 0.00541 |
| RRIRWRPPRLPRPRPRPFCDPRP | 0.189 |
| RRIRSRPPRLPRPRPRPLAVPRP | 0.0333 |
| RRIRARPPRLPRPRPRPSHCPRP | -0.101 |
| RRIRVRPPRLPRPRPRPSVMPRP | -0.15 |
| RRIRCRPPRLPRPRPRPATQPRP | 0.262 |
| RRIRVRPPRLPRPRPRPEAYPRP | -0.0262 |
| RRIRNRPPRLPRPRPRPYLFPRP | -0.541 |
| RRIRKRPPRLPRPRPRPISAPRP | 0.164 |
| RRIRDRPPRLPRPRPRPQWSPRP | -0.0128 |
| RRIRDRPPRLPRPRPRPMFWPRP | 0.0751 |
| RRIRLRPPRLPRPRPRPTHEPRP | 0.361 |
| RRIRQRPPRLPRPRPRPQITPRP | -0.337 |
| RRIRGRPPRLPRPRPRPRPPPRP | 1.19 |

| Sequence | shrunken log2 fold change |
| --- | --- |
| RRIRWRPPRLPRPRPRPNFIPRP | -0.174 |
| RRIRNRPPRLPRPRPRPIIPPRP | -0.0623 |
| RRIRVRPPRLPRPRPRPLGNPRP | -0.424 |
| RRIRLRPPRLPRPRPRPTGPPRP | 0.298 |
| RRIRARPPRLPRPRPRPINDPRP | 0.00287 |
| RRIRKRPPRLPRPRPRPVLQPRP | -0.0875 |
| RRIRCRPPRLPRPRPRPEHCPRP | -0.0294 |
| RRIRFRPPRLPRPRPRPMHVPRP | -0.0102 |
| RRIRCRPPRLPRPRPRPFTRPRP | -0.291 |
| RRIRDRPPRLPRPRPRPAILPRP | 0.099 |
| RRIRRRPPRLPRPRPRPNCLPRP | 0.312 |
| RRIRQRPPRLPRPRPRPVYHPRP | -0.83 |
| RRIRHRPPRLPRPRPRPGSCPRP | -0.108 |
| RRIRIRPPRLPRPRPRPLFRPRP | -0.429 |
| RRIRTRPPRLPRPRPRPDRDPRP | -0.126 |
| RRIRERPPRLPRPRPRPYDWPRP | -0.0444 |
| RRIRFRPPRLPRPRPRPGIVPRP | -0.0228 |
| RRIRIRPPRLPRPRPRPLTWPRP | -0.585 |
| RRIRNRPPRLPRPRPRPKCSPRP | 0.0607 |
| RRIRWRPPRLPRPRPRPPCWPRP | 0.347 |
| RRIRRRPPRLPRPRPRPMQKPRP | 0.026 |
| RRIRFRPPRLPRPRPRPRRIPRP | -0.116 |
| RRIRMRPPRLPRPRPRPTIQPRP | 0.318 |
| RRIRIRPPRLPRPRPRPNDAPRP | -0.182 |
| RRIRIRPPRLPRPRPRPDHVPRP | -0.23 |

| Sequence | shrunken log2 fold change |
| --- | --- |
| RRIRERPPRLPRPRPRPVKNPRP | 0.0428 |
| RRIRYRPPRLPRPRPRPMAYPRP | -0.0189 |
| RRIRQRPPRLPRPRPRPPFEPRP | 0.333 |
| RRIRCRPPRLPRPRPRPDMGPRP | -0.406 |
| RRIRWRPPRLPRPRPRPCHGPRP | 0.0694 |
| RRIRWRPPRLPRPRPRPNSQPRP | -0.0188 |
| RRIRVRPPRLPRPRPRPMYHPRP | -0.0185 |
| RRIRYRPPRLPRPRPRPCHHPRP | -0.12 |
| RRIRIRPPRLPRPRPRPCKPPRP | -0.19 |
| RRIRLRPPRLPRPRPRPADMPRP | -0.445 |
| RRIRTRPPRLPRPRPRPSPEPRP | 0.0171 |
| RRIRSRPPRLPRPRPRPHCAPRP | -0.0311 |
| RRIRHRPPRLPRPRPRPPCWPRP | 0.142 |
| RRIRPRPPRLPRPRPRPQQRPRP | 0.0201 |
| RRIRYRPPRLPRPRPRPQWIPRP | 0.00701 |
| RRIRTRPPRLPRPRPRPSHWPRP | -0.148 |
| RRIRARPPRLPRPRPRPMMSPRP | 0.186 |
| RRIRWRPPRLPRPRPRPLKWPRP | 0.488 |
| RRIRIRPPRLPRPRPRPRSAPRP | 0.0737 |
| RRIRFRPPRLPRPRPRPQRQPRP | -0.064 |
| RRIRLRPPRLPRPRPRPCLVPRP | 0.127 |
| RRIRIRPPRLPRPRPRPMMFPRP | -0.0225 |
| RRIRVRPPRLPRPRPRPTMWPRP | 0.267 |
| RRIRVRPPRLPRPRPRPYRPPRP | -0.462 |
| RRIRTRPPRLPRPRPRPFVKPRP | -0.838 |

| Sequence | shrunken log2 fold change |
| --- | --- |
| RRIRSRPPRLPRPRPRPGYTPRP | -0.129 |
| RRIRVRPPRLPRPRPRPFNPPRP | -0.484 |
| RRIRPRPPRLPRPRPRPMVGPRP | 0.265 |
| RRIRKRPPRLPRPRPRPYMPPRP | -0.315 |
| RRIRLRPPRLPRPRPRPHKYPRP | -0.559 |
| RRIRTRPPRLPRPRPRPELPPRP | 0.499 |
| RRIRHRPPRLPRPRPRPKQCPRP | -0.224 |
| RRIRARPPRLPRPRPRPHMVPRP | -0.069 |
| RRIRMRPPRLPRPRPRPIKLPRP | 0.0649 |
| RRIRRRPPRLPRPRPRPHPLPRP | 0.211 |
| RRIRNRPPRLPRPRPRPQGCPRP | 0.0942 |
| RRIRNRPPRLPRPRPRPELLPRP | 0.0274 |
| RRIRYRPPRLPRPRPRPPKRPRP | -0.121 |
| RRIRKRPPRLPRPRPRPMLEPRP | 0.621 |
| RRIRKRPPRLPRPRPRPKRTPRP | 1.7 |
| RRIRHRPPRLPRPRPRPMLYPRP | -1.49 |
| RRIRERPPRLPRPRPRPMVPPRP | -0.103 |
| RRIRNRPPRLPRPRPRPLMTPRP | 0.0149 |
| RRIRTRPPRLPRPRPRPQYDPRP | -0.0819 |
| RRIRNRPPRLPRPRPRPMWRPRP | -0.0211 |
| RRIRKRPPRLPRPRPRPVKHPRP | -0.0571 |
| RRIRERPPRLPRPRPRPMCSPRP | -0.00794 |
| RRIRLRPPRLPRPRPRPQIRPRP | -0.0176 |
| RRIRWRPPRLPRPRPRPAYKPRP | -0.182 |
| RRIRERPPRLPRPRPRPENNPRP | -0.27 |

| Sequence | shrunken log2 fold change |
| --- | --- |
| RRIRCRPPRLPRPRPRPPRQPRP | 0.589 |
| RRIRHRPPRLPRPRPRPMWCPRP | -0.187 |
| RRIRIRPPRLPRPRPRPPDWPRP | 0.286 |
| RRIRDRPPRLPRPRPRPWNWPRP | 0.0868 |
| RRIRHRPPRLPRPRPRPWQYPRP | -0.17 |
| RRIRIRPPRLPRPRPRPEQIPRP | -9e-05 |
| RRIRYRPPRLPRPRPRPTHIPRP | -1.04 |
| RRIRNRPPRLPRPRPRPLCDPRP | 0.0696 |
| RRIRSRPPRLPRPRPRPLRYPRP | 0.166 |
| RRIRSRPPRLPRPRPRPFFMPRP | -0.288 |
| RRIRNRPPRLPRPRPRPRKNPRP | 0.161 |
| RRIRARPPRLPRPRPRPIDQPRP | 0.444 |
| RRIRLRPPRLPRPRPRPPMVPRP | -0.192 |
| RRIRQRPPRLPRPRPRPATNPRP | -0.0811 |
| RRIRARPPRLPRPRPRPGYSPRP | -0.35 |
| RRIRDRPPRLPRPRPRPRQDPRP | 0.367 |
| RRIRFRPPRLPRPRPRPLGQPRP | -0.187 |
| RRIRIRPPRLPRPRPRPENQPRP | -0.473 |
| RRIRLRPPRLPRPRPRPNNHPRP | -0.761 |
| RRIRPRPPRLPRPRPRPMSIPRP | -0.211 |
| RRIRDRPPRLPRPRPRPDNHPRP | -0.107 |
| RRIRQRPPRLPRPRPRPFTQPRP | -0.0608 |
| RRIRNRPPRLPRPRPRPVAPPRP | 0.153 |
| RRIRRRPPRLPRPRPRPFWPPRP | 0.312 |
| RRIRTRPPRLPRPRPRPIIMPRP | -0.305 |

| Sequence | shrunken log2 fold change |
| --- | --- |
| RRIRWRPPRLPRPRPRPKIRPRP | 0.00361 |
| RRIRMRPPRLPRPRPRPYYFPRP | -0.537 |
| RRIRVRPPRLPRPRPRPDWGPRP | 0.184 |
| RRIRTRPPRLPRPRPRPVNNPRP | -0.0819 |
| RRIRKRPPRLPRPRPRPQGYPRP | -0.0839 |
| RRIRARPPRLPRPRPRPKQIPRP | 0.146 |
| RRIRLRPPRLPRPRPRPVDLPRP | -0.418 |
| RRIRFRPPRLPRPRPRPRYMPRP | -0.689 |
| RRIRLRPPRLPRPRPRPTSAPRP | 0.659 |
| RRIRIRPPRLPRPRPRPFDMPRP | -0.142 |
| RRIRVRPPRLPRPRPRPDMWPRP | -0.499 |
| RRIRHRPPRLPRPRPRPLRYPRP | -0.388 |
| RRIRGRPPRLPRPRPRPYAAPRP | 0.859 |
| RRIRPRPPRLPRPRPRPQMSPRP | 0.0674 |
| RRIRDRPPRLPRPRPRPTCHPRP | 0.0627 |
| RRIRGRPPRLPRPRPRPWCKPRP | -0.184 |
| RRIRPRPPRLPRPRPRPGSTPRP | 0.123 |
| RRIRSRPPRLPRPRPRPHYTPRP | -0.728 |
| RRIRKRPPRLPRPRPRPKQVPRP | -0.176 |
| RRIRARPPRLPRPRPRPDMFPRP | 0.0745 |
| RRIRFRPPRLPRPRPRPPIPPRP | 0.257 |
| RRIRNRPPRLPRPRPRPWVKPRP | -0.0802 |
| RRIRDRPPRLPRPRPRPIAGPRP | -0.0166 |
| RRIRWRPPRLPRPRPRPKQQPRP | -0.133 |
| RRIRMRPPRLPRPRPRPCKAPRP | 0.173 |
